The target of one assay is T1, rat OX1R (rat, UniProt P56718 1-416).
T1 construct: whole, on cells; also called CHO-ratOX1R; OX1R of rat
T1 sequence (looked up): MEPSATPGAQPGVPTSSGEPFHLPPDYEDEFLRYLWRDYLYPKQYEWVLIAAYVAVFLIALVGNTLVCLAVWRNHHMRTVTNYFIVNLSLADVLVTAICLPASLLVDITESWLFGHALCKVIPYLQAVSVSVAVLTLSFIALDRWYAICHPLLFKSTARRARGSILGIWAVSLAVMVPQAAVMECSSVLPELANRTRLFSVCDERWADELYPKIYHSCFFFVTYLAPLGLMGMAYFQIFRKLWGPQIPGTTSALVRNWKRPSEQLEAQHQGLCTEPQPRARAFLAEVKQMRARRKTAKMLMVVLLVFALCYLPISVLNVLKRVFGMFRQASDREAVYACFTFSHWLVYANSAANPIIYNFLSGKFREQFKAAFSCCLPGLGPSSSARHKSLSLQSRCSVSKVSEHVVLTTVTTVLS
As to the kind of experiment: told from effects on cells transfected with rat OX1R (FIG. 4).

The next assay concerns the target T2, mouse OX1R (mouse, UniProt P58307 1-416).
T2 construct: whole, on cells; Legend says HEK-mouseOX1R, the text says CHO cell lines transfected with OX1R of mouse or rat; also called HEK-mouseOX1R; OX1R of mouse
T2 sequence (looked up): T1 sequence (looked up) with H116Q, R205H, F221I, G232A, P245R, S383G
The assay is described as follows: told from effects on cells transfected with mouse OX1R (FIG. 4).

Assay [1] concerns the target T3, orexin receptor type 1 (OX1R) (human, UniProt O43613 1-425).
T3 construct: whole, on cells; also called HCTR1; hypocretin receptor type 1
T3 sequence (looked up): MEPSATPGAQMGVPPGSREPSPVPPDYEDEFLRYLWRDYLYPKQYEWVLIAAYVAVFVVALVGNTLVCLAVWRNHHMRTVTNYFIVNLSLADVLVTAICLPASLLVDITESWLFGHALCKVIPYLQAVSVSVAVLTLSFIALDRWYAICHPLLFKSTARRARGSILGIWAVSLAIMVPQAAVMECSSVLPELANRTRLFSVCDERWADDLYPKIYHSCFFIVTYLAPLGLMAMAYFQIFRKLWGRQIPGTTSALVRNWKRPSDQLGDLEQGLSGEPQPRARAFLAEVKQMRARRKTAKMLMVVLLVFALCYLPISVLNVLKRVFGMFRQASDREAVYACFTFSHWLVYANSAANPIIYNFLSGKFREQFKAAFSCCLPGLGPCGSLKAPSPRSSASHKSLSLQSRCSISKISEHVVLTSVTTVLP
The assay is described as follows: competitive inhibition of 125I-OxA binding to HEK-OX1R cells.

In another assay the test system is CHO-ratOX1R. As to the kind of experiment: Cell growth / apoptosis of cells transfected with rat OX1R. Format: cell-based. The following applies: 0.1 μM, 48 h, FIG. 4.
The next assay relates to LoVo cells. The assay is described as follows: Cell growth of colon cancer cell line LoVo. The format is cell-based. The following applies: 0.1 μM, 48 h. Here is the method: (§1) A. SW48 and AsPC-1 cells. B. LoVo and HCT-116 cells. Cells were treated for 48 h with 0.1 μM of each compound and then cells were counted. Results were expressed as the percentage of untreated cell number (Control).
(§2) We have tested the ability of antibodies to inhibit the cellular growth in cancer cell lines derived from colon cancer (SW48, LoVo and HCT-116 cells) and pancreas cancer (AsPC-1 cells). […] D4 and H7 have a weak effect. […] As previously described (see above) orexins are able to induce a mitochondrial apoptosis in cancer cell lines. We test the ability of antibodies to induce apoptosis in HEK-OX1R cells and colonic cancer cell line LoVo. […] This effect was dose-dependent. Indeed when HEK-OX1R cells were treated with 0.01μM of C2 antibody, cell apoptosis was only of 6±0.7% of total cells.

For the next assay, the system named is HEK-mouseOX1R. As to the kind of experiment: Cell growth / apoptosis of cells transfected with mouse OX1R. The following applies: 0.1 μM, 48 h, FIG. 4. Format: cell-based. The protocol: Cells were treated for 48 h with 0.1 μM of each compound and then cells were counted. Results were expressed as the percentage of untreated cell number (Control).
The development of antibodies directed against OX1R were produced by a phage display strategy and the antibody selection was performed by using HEK and HEK stably expressing OX1R (HEK-OX1R) cell lines. As a first step, a batch of 7 different antibodies named B4, B10, C1, C2, D4, E7 and H7 was tested for their ability to inhibit the cell growth of HEK-OX1R. […] In contrast, B4, B10, D4, E7 and. […] As previously described orexins (A & B) induced a mitochondrial apoptosis mediated by an entirely novel mechanism, not related to Gq-mediated phospholipase C activation. In fact, orexins induced the tyrosine phosphorylation of two immunoreceptor tyrosine-based inhibitory motifs (ITIMs) located in the OX1R sequence. The resulting phosphorylated receptor could then recruit and activate the phosphotyrosine phosphatase, SHP-2, which is responsible for mitochondrial apoptosis, involving cytochrome c release from mitochondria to cytosol and caspase-3 and caspase-7 activation. Here, we tested the effect of SHP inhibitor (NSC 87877) on the ability of anti-OX1R to inhibit the cellular growth of HEK-OX1R (FIG. 3).

The subject of the next assay is AsPC-1 cells. The assay is described as follows: Cell growth of pancreas cancer cell line AsPC-1. The format is cell-based. The following applies: 0.1 μM, 48 h. Here is the method: as §1, §2
The next assay has as its system SW48 cells. The assay is described as follows: Cell growth of colon cancer cell line SW48. The format is cell-based. Particulars: 0.1 μM, 48 h. The protocol:
as §1, §2

In assay [2] the test system is HEK-OX1R cells expressing recombinant OX1R. The assay is described as follows: Cell growth of HEK-OX1R cells (cell counting). Format: cell-based, human. The following applies: 0.1 μM, 48 h.
For assay [3] the test system is unchanged. As to the kind of experiment: Apoptosis in HEK-OX1R cells (annexin V-PE binding, Guava nexin kit). Format: cell-based, human. Particulars: 0.1 μM, 48 h.

Substitutions are numbered along the chain they refer to.

B1: C1 antibody (antibody, V domains shown)
VH: EVQLVESGGSLVKPGGSLRLSCAASGFTFSNYYMNWVRQAPGKGLEWISYISGSSRNIYYADFVKGRFTISRDNATNSLYLQMNSLRAEDTAVYYCVRSNYDGMDVWGRGTLVTVSS
VL: QSVLTQPASVSGSPGQSITISCAGTSSDVGGSNYVSWYQQHPGKAPKLMIYSDSYRPSGVSNRFSGSKSGNTASLTISGLQAEDEADYYCSSYTYYSTRVFGGGTKLAVLG
notes: Human anti-OX1R antibody from phage display
For B1, the binding result with rat OX1R and in the assay with mouse OX1R was “binds” in each case. For the same molecule, in assay [1], the 50% inhibitory concentration (IC50) was about 5 µM.

B2: C1: human monoclonal anti-OX1R antibody from phage display; VH SEQ ID NO:1, VL SEQ ID NO:2 (antibody, V domains shown)
VH: B1 VH
VL: B1 VL
modifications: Synthetic VH sequence of C1; Synthetic VL sequence of C1
Regarding B2, the “promotion of apoptosis of cells transfected with OX1R of rat (cross reaction)” value with CHO-ratOX1R is reported as “able to promote apotosis”. The “cell growth inhibition in LoVo cells” value in the assay on LoVo cells was “inhibit the cell growth in LoVo cells similarly to OxB”. Also, the “promotion of apoptosis of cells transfected with OX1R of mouse (cross reaction)” value with HEK-mouseOX1R is listed as “able to promote apotosis”. Also, the “cell growth inhibition in AsPC-1 cells” value with AsPC-1 cells is “cell growth inhibition similar to OxB effect”. Besides, the “cell growth inhibition in SW48 cells” value in the assay with SW48 cells is listed as “inhibit the cell growth in SW48 cells similarly to OxB”. In addition, the “inhibition of HEK-OX1R cellular growth in the presence of SHP inhibitor NSC 87877” value in assay [2] (50 μM NSC 87877) was “totally reversed”. For the same molecule, the “reduction of HEK-OX1R cell number (cellular growth inhibition)” value in assay [2] (cells counted, versus untreated cells) was “about 46%±3”. The “apoptosis in HEK-OX1R cells, % of total cells” value in [3] was found to be 12±1%.

A word on the IC50: it is the concentration needed to halve the response being measured. Higher therefore signals weaker potency.

The values are drawn from patent US20180030135A1, “HUMAN MONOCLONAL ANTIBODIES AGAINST OREXIN RECEPTOR TYPE 1” (INSERM (INSTITUT NATIONAL DE LA SANTÉ ET DE LA RECHERCHÉ …, priority 2015, published 2018).
